Measured values: patent US20190071477A1

What was measured:
C3b [1] = target: C3b (UniProt P01024); assay: cell-based or functional assay
C3b [2] = target: C3b (UniProt P01024); assay: ELISA on plates coated with C3b (5 ug/mL), detection with mouse anti-human CFH antibody and HRP goat anti-mouse, OD450

Sequence of hSCR (1-7)-mFc fusion protein (chain): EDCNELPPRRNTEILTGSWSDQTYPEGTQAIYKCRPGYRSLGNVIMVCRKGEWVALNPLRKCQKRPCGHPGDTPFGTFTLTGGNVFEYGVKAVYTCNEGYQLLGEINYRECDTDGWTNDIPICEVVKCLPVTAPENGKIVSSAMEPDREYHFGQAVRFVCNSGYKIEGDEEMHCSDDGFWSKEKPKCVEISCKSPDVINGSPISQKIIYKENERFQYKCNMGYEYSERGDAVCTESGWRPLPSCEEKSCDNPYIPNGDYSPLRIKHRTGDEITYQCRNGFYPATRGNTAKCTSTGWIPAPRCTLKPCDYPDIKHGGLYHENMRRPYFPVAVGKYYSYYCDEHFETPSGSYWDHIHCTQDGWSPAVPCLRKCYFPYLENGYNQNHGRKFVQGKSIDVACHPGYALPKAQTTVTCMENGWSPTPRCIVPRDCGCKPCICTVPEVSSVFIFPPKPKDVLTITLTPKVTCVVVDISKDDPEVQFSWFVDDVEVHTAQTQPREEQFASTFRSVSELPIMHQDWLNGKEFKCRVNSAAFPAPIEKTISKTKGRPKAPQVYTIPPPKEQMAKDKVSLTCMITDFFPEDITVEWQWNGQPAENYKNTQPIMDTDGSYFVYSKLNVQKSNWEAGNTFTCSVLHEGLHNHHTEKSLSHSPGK
Sequence of hSCR (1-7)-hSCR (18-20)-hFc fusion protein (P08603 other isoform, or with tags, fused parts or gaps limits assumed): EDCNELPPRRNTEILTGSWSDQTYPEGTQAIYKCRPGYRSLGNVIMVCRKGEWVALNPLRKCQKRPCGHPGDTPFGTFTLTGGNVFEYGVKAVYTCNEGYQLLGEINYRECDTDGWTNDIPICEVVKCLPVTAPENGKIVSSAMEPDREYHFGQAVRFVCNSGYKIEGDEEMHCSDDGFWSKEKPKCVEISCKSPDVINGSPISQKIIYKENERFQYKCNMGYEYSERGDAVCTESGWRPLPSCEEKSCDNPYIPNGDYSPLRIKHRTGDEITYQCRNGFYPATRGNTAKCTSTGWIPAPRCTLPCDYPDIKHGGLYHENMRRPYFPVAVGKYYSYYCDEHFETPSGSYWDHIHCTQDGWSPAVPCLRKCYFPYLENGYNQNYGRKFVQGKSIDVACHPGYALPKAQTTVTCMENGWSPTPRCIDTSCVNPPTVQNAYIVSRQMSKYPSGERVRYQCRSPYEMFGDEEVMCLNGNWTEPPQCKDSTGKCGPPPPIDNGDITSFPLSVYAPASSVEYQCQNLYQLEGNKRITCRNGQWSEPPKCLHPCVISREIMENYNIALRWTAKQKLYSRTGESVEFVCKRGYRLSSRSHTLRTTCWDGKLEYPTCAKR
Sequence of human CFH (complement Factor H) (P08603 19-1231 limits assumed): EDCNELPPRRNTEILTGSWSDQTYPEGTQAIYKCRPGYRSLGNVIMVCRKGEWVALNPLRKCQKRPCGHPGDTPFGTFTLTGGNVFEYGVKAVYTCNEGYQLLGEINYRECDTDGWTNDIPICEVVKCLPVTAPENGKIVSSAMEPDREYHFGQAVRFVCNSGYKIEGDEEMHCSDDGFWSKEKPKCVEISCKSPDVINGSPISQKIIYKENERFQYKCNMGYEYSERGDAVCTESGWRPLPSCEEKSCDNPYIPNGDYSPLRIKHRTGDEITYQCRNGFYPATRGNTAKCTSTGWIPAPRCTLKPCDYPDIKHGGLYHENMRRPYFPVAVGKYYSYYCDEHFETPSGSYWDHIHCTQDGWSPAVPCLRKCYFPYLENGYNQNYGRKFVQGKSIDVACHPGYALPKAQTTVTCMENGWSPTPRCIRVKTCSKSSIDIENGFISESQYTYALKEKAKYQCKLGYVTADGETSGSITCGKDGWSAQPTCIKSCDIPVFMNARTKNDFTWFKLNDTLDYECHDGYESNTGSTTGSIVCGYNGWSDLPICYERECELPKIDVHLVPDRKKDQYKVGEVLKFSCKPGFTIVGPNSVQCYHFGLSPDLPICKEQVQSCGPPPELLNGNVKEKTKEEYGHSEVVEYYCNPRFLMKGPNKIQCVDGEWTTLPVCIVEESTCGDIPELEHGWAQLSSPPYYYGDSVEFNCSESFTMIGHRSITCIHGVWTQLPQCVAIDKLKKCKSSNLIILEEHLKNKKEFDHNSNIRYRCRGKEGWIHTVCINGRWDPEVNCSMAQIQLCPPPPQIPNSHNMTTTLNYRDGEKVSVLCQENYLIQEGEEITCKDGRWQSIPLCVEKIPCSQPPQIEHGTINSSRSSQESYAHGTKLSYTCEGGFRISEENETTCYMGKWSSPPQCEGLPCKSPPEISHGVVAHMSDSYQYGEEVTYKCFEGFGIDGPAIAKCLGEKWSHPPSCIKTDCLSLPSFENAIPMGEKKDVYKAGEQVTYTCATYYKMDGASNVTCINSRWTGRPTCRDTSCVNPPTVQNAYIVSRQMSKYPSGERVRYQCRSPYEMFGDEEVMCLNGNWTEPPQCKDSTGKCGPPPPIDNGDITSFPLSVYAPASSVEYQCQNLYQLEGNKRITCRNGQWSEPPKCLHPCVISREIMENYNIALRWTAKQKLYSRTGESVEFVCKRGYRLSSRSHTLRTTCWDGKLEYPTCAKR

For hSCR (1-7)-hFc fusion protein, the IC50, inhibition of rabbit red blood cell hemolysis mediated by the alternative complement pathway (C3b [1]) was 0.074 µM, the hemolysis inhibiting activity relative to human CFH (C3b [1]) was 5 times and the EC50 (read off the curve) (C3b [2]) was 0.03 µM.

In the case of “hSCR (1-7)-hSCR (18-20)-hFc fusion protein (from UniProt P08603 19-1231)”, the IC50, inhibition of rabbit red blood cell hemolysis mediated by the alternative complement pathway (C3b [1]) was 0.33 µM.

In the case of hSCR (1-7)-mFc fusion protein, the IC50, inhibition of rabbit red blood cell hemolysis mediated by the alternative complement pathway (C3b [1]) was 0.086 µM and the EC50 (read off the curve) (C3b [2]) was 0.03 µM.

For “human CFH (complement Factor H) (from UniProt P08603 19-1231)”, the IC50, inhibition of rabbit red blood cell hemolysis mediated by the alternative complement pathway (C3b [1]) was 0.37 µM.
